In paper PMC10275869:

Assays:
Assay in all cases: SEC; 100-200 μg of protein on a Superose 6 Increase 10/300GL column
[1] = target: unstabilised LayV F (ectodomain with C-Tag, without clamp2) (Langya virus)
[2] = target: LayV F clamp2 (prefusion Langya virus fusion glycoprotein ectodomain stabilised with the clamp2 molecular clamp) (Langya virus)
[3] = target: unstabilised MojV F (ectodomain with C-Tag, without clamp2) (Mòjiāng virus)

Substance “unstabilised LayV F (ectodomain with C-Tag, without clamp2) (domain or fragment)” has a stoichiometry N [1] of 3.
“LayV F clamp2 (prefusion Langya virus fusion glycoprotein ectodomain stabilised with the clamp2 molecular clamp) (domain or fragment)” gave a stoichiometry N [2] of 3.
Substance “unstabilised MojV F (ectodomain with C-Tag, without clamp2) (domain or fragment)” has a stoichiometry N [3] of 3.
